In assay [1] the target is T1, recombinant human sPLA2-GIB (mature secreted form of group IB pancreatic phospholipase A2) (human, UniProt P04054 23-148).
T1 construct: Genbank NP_000919 printed for human PLA2-GIB; also called sPLA2-IB; mature sPLA2-GIB
The experiment in a line: competition ELISA on coated sPLA2-IB; competitor biotinylated 1C11. The method, then: (§1) Epitope mapping of the #14G9, #1C11, #8G11 and #7A10 mAbs was evaluated by competition ELISA. Biotinylated mAbs #14G9, #1C11, #8G11 or #7A10 were added to sPLA2-GIB or pro-sPLA2-GIB coated plates in the presence of an excess of un-biotinylated mAb. Bound mAbs were then detected with Streptavidin-HRP conjugate. Results were expressed as percentage of signal, after subtraction of the autologous competition, with 0% representing maximum competition and 100% no competition (Table 4).
On the technique in general: An ELISA detects its analyte on a solid surface through an enzyme-linked reagent.

The target of assay [2] is T1, recombinant human sPLA2-GIB (mature …). Briefly: cell-based or functional assay.
The target is the same in assay [3]. The experiment in a line: competition ELISA on coated sPLA2-IB; competitor biotinylated 14G9. The method, then: as §1
The target of assay [4] is T2, recombinant human pro-sPLA2-GIB (pro form of group IB pancreatic phospholipase A2) (human, UniProt P04054 16-148).
T2 construct: also called pro-sPLA2-IB; proPLA2-GIB
Briefly: competition ELISA on coated pro-sPLA2-IB; competitor biotinylated 1C11. The procedure:
as §1

For assay [5], the target named is T2, recombinant human pro-sPLA2-GIB (pro …). Briefly: competition ELISA on coated pro-sPLA2-IB; competitor biotinylated 7A10. The procedure:
as §1

Assay [6] shares this target. Briefly: indirect ELISA, coated antigen. The procedure: (§2) Microplate wells were typically coated with 100 ng of recombinant human sPLA2-GIB or pro-sPLA2-GIB in PBS pH 7.5, overnight at 4° C. Sample wells were washed three times with PBS containing 0.05% Tween 20. After final washing, sample wells were treated with blocking solution containing 1% bovine serum albumin (BSA) in PBS buffer for 60 min at room temperature. Following washing with PBS containing 0.05% Tween 20, increasing amounts (10 ng/mL up to 3 μg/mL) of mAb directed against human pro-sPLA2-GIB or sPLA2-GIB were added to antigen-coated wells. and incubated for 120 min at room temperature. Following washing with PBS containing 0.05% Tween 20, the binding of mAb was detected with an HRP-conjugated goat anti-mouse IgG or IgA polyclonal antibody reagent and developed using colorimetric substrate. The dependency of the signals on the […] was analyzed with a 4-parameter fit analysis using Prism™ software (Graph Pad) and reported as EC50.

Assay [7] addresses T1, recombinant human sPLA2-GIB (mature …). Briefly: indirect ELISA, coated antigen. The procedure: as §2
Assay [8] addresses T2, recombinant human pro-sPLA2-GIB (pro …). Briefly: competition ELISA on coated pro-sPLA2-IB; competitor biotinylated 8G11. The method, then: as §1
Assay [9] deals with T1, recombinant human sPLA2-GIB (mature …). Briefly: competition ELISA on coated sPLA2-IB; competitor biotinylated 7A10. The procedure:
as §1

Assay [10] deals with T2, recombinant human pro-sPLA2-GIB (pro …). The experiment in a line: competitive ELISA: mAb premixed with serial dilutions of soluble antigen, free mAb read on antigen-coated plate. The method, then:
(§3) Binding affinities of the antibodies to pro-sPLA2-GIB and sPLA2-GIB were measured by plate-based competition immunoassay. For the competition ELISA, briefly, constant amounts of antibody at different levels were premixed with serial dilutions of antigen protein, human sPLA2-GIB or pro-sPLA2-GIB, ranging from 0 to 10 μg/ml, and incubated for two hours at room temperature to reach pseudo-binding equilibrium between the antibody and antigen. These solutions were then transferred to 96-well sPLA2-GIB or pro-sPLA2-GIB pre-coated plates to allow the free-antibody in the mixtures to bind to plate-coated sPLA2-GIB or pro-sPLA2-GIB. The plates were typically coated with 30 to 100 ng of human sPLA2-GIB or pro-sPLA2-GIB protein in PBS solution overnight at 4° C. followed by BSA nonspecific blocking. After washing off excess antibody in solution, plate-bound antibodies were detected with an HRP-conjugated goat anti-mouse IgG or IgA polyclonal antibody reagent and developed using colorimetric substrate. The dependency of the signals on the concentrations of antigen in solution was analyzed with a 4-parameter fit analysis using Prism™ software (Graph Pad) and reported as IC50.
(§4) The respective binding affinities of the antibodies to human pro-sPLA2-GIB and human sPLA2-GIB were measured by plate-based competition immunoassay. Briefly, constant amounts of antibody at different levels were premixed with serial dilutions of antigen proteins to reach pseudo-binding equilibrium between the antibody and antigen. These solutions were then transferred to antigen pre-coated plates to allow the free-antibody in the mixtures to bind to plate-coated sPLA2-GIB or pro-sPLA2-GIB. Plate-bound antibodies were detected with an HRP-conjugated polyclonal antibody. Data were fitted with a 4PL logistic non-linear regression model and the relative IC50 values were estimated from the model (Table 2).

Assay [11] deals with T1, recombinant human sPLA2-GIB (mature …). Described as above. The procedure: as §3, §4
Assay [12] addresses T2, recombinant human pro-sPLA2-GIB (pro …). Briefly: SPR (BIAcore 2000), mAb captured on anti-mouse IgG, antigen in solution. The procedure: (§5) The affinity constant (KD) of the pro-sPLA2-GIB and sPLA2-GIB binding to the selected antibodies described above were determined by surface kinetics on a real-time biosensor surface plasmon resonance assay (BIAcore™). More specifically, the affinity of the antibodies for human pro-sPLA2-GIB and sPLA2-GIB was measured using a BIAcore® 2000. The antibody was captured on an anti-mouse IgG surface and exposed to various concentrations of recombinant pro-sPLA2-GIB and sPLA2-GIB protein. Kinetic analysis using BlAevaluation™ software was performed to obtain the association and dissociation rate constants.
as §5, with “constants (Table 3).” for “constants.”
On the technique in general: SPR reads the build-up and loss of mass on a sensor chip optically.

The target of assay [13] is T1, recombinant human sPLA2-GIB (mature …). The assay is described as above. The procedure:
as §5
as §5, with “constants (Table 3).” for “constants.”

T1 sequence (P04054 23-148): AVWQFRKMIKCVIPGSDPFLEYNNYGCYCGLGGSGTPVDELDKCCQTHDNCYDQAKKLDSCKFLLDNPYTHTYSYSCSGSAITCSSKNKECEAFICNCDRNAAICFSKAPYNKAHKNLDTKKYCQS
T2 sequence (P04054 16-148): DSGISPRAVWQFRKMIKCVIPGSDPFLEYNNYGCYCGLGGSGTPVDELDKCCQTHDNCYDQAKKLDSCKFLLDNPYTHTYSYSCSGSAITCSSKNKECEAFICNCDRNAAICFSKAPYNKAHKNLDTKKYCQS

B1: #22C6 (antibody, IgG2a, V domains shown)
VH: EVQLQESGPGLVKPSQTVSLNCTVTGHSITDDNYYWSWIRLVSGSKLEWIGYITSAGNTDNNPSLKSRISITRDISKNQFFLHLSSVTAEDTATYYCARDSTDGDFYFEKWGQGTTLTVSS
VL: EIVLTQSPTTMAASPGEKITITCSVSSSISPNFLHWYQQKPGFSPKLLIFRTSNLASGVPTRFSGSGSGTSYSLTIGTMEAEDVATYYCHQGNSLPLTFGAGTKLELKR
As a reminder, the EC50 is the concentration at which the effect is half-maximal. In the case of B1, the percentage of signal in assay [1] came to 56%; in [3] it was 2%; in [4], 18%; in assay [5], 141%; in [8] it was 39%; in assay [9], 53%. The “Enzymatic Activity Inhibition (% of Control)” value in [2] stood at 3%. For the same molecule, the values for the half-maximal effective concentration (EC50) in assay [6] and in assay [7] were 117 nM and 22 nM, respectively.

B2: #24B2 (antibody, IgG2a, V domains shown)
VH: DVQVQESGPGLVKPSQTVSLNCTVTGHSITDDNYYWSWIRLVSGSKLEWIGYITSSGSTDINPSLKSRISITRDISKNQFFLHLNSVTAEDTATYYCARDSTDGDFYFEKWGQGTTLTVSS
VL: DIVLTQSPASLAVSLGQRATISCRASESVDNYGISFMHWYQQKPGQPPKLLIYRASNLESGIPARFSGSGSRTDFTLTINPVETDDVATYYCQQSSRDLFTFGGGTKLEIKR
Take B2: the percentage of signal in assay [1] came out at 61%; in assay [3] it was 17%; in [4], 23%; in [5], 135%; in [8] it was 64%; in assay [9] it was 65%. Moreover, in assay [2], the “Enzymatic Activity Inhibition (% of Control)” value amounted to 5%. The EC50 is 81 nM in assay [6] and 15 nM in assay [7].

B3: #1C11 (antibody, IgG1, V domains shown)
VH: EVKLQESGPELVKPGASVKISCKVSGYAFSSFWMNWVKQRPGKGLEWIGRIYPGDGDINYNGKFKGKATLTADKSSSTAYMQLSSLTSEDSAVYFCVRGWAWFPYWGQGTLVTVSA
VL: EIVLTQSPAITSASLGQRVTISCSATSSVSYVHWYQQKSGTSPKPWIYEISRLASGVPARFSGSGSGTSYSLTISTMEAEDAAIYYCQSWNFPLLSFGAGTKLELKR
notes: also called monoclonal antibody 1C11; #1C11 mAb
The IC50 is the concentration that gives 50% inhibition. The term Kd denotes the free concentration of one partner at which half of the binding sites on the other are occupied at equilibrium, for simple one-to-one binding. In general, koff refers to the rate constant with which the complex falls apart. Broadly, the kon is the second-order rate constant of association. Turning to B3, the “Enzymatic Activity Inhibition (% of Control)” value in assay [2] amounted to 110%. In addition, the percentage of signal in assay [3] worked out at 1440%; in assay [5], 314%; in [8], 496%; in [9], 1150%. Also, the concentration giving a half-maximal response (EC50) in [6] amounted to 4 nM; in assay [7], 3 nM. Besides, the 50% inhibitory concentration (IC50) was found to be 2.4 nM in assay [10] and 3.8 nM in [11]. Also, the Kd in [12] is 0.151 nM; in assay [13], 0.0644 nM. Besides, the off-rate (koff) came out at 0.000405 s⁻¹ in assay [12] and 0.000309 s⁻¹ in assay [13]. Besides, the on-rate constant (kon) in assay [12] came to 2.7e+06 M⁻¹ s⁻¹; in [13] it was 4.79e+06 M⁻¹ s⁻¹. Further, the t1/2 in assay [12] was determined as 41.2 min; in assay [13] it was 53.9 min.

B4: #7A10 (antibody, IgG1, V domains shown)
VH: QVQLKESGPGLVAPSQSLSITCTVSGFSLTSYGVSWVRQPPGKGLEWLGVIWGDGSTNYHSALISRLSISKDNSKSQVFLKLNSLQTDDTATYYCAKEGGLRRGVYFDYWGQGTTLTVSS
VL: DIQMNQSPSSLSASLGDTITITCRASQGISIWLDWYQQKPGNIPKLLIYKASNLHTGVPPRFSGSGSGTDFTLTISSLQPEDIATYYCLQSQSYPLTFGAGTKLELKR
notes: also called monoclonal antibody 7A10; #7A10 mAb
As for B4, the percentage of signal in assay [1] is 19%; in [3] it was 58%; in assay [4] it was 18%; in assay [8], 93%. For the same molecule, the “Enzymatic Activity Inhibition (% of Control)” value in [2] worked out at 51%. The concentration giving a half-maximal response (EC50) in assay [6] amounted to 13 nM; in assay [7], 77 nM. The half-inhibitory concentration (IC50) was determined as 4.3 nM in [10] and 5.3 nM in [11]. In addition, the Kd came to 3.79 nM in assay [12] and 3.83 nM in [13]. The koff in assay [12] worked out at 0.000407 s⁻¹; in assay [13], 0.000444 s⁻¹. In addition, the figures for the on-rate constant (kon) in [12] and in assay [13] were 110000 M⁻¹ s⁻¹ and 118000 M⁻¹ s⁻¹, respectively. For the same molecule, the t1/2 in assay [12] is 41 min; in [13], 37.5 min.

These data come from US20210047431A1 (DIACCURATE, published 2021).
